These results are taken from paper PMC12990809.

What all share (assay): pulldown
Data set [1] concerns the target T1, Smp_006320 (Schistosoma mansoni) (UniProt G4VQQ6).
T1 sequence: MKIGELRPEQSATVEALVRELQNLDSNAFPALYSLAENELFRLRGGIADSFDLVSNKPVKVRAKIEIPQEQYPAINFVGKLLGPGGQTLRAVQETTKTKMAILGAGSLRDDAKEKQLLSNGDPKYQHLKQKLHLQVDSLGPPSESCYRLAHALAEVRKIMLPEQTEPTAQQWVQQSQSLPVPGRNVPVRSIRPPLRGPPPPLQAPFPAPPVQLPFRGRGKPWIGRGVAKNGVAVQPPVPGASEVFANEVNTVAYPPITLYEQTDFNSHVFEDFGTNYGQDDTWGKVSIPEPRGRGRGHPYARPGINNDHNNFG
Conditions: 20 nM protein, 1.5 uM RNA pool; 20 mM HEPES pH 7.8, 70 mM KCl, 10 mM NaCl, 10% glycerol, 2 mM DTT, 0.1 ug/uL BSA; 30 min, 4 C.

Data set [2] has as its target T2, pabpc1A (Dictyostelium discoideum) (UniProt Q54BM2).
T2 sequence: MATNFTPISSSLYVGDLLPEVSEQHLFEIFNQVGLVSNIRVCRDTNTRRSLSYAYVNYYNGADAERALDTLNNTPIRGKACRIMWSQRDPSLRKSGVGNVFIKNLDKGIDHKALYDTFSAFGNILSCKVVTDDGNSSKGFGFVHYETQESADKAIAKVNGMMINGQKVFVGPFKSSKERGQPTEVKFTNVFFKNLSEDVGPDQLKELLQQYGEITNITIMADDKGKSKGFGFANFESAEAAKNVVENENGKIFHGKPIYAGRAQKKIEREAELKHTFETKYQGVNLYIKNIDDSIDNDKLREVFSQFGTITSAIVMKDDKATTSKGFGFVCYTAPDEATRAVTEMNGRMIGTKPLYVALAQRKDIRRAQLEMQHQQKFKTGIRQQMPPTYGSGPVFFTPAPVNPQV
Conditions: 20 nM protein, 1.5 uM RNA pool; 20 mM HEPES pH 7.8, 70 mM KCl, 10 mM NaCl, 10% glycerol, 2 mM DTT, 0.1 ug/uL BSA; 30 min, 4 C.

The target of data set [3] is T3, PK01594.1 (Cannabis sativa) (UniProt A0A803NG34).
T3 sequence: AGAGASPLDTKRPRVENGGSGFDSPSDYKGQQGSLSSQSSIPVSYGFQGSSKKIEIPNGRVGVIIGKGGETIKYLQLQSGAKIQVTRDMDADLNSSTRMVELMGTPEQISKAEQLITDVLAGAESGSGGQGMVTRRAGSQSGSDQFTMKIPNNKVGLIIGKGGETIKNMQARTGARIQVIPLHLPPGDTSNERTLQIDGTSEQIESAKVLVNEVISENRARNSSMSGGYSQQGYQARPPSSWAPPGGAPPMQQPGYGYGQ
The note with it: 20 nM protein, 1.5 uM RNA pool; 20 mM HEPES pH 7.8, 70 mM KCl, 10 mM NaCl, 10% glycerol, 2 mM DTT, 0.1 ug/uL BSA; 30 min, 4 C.

Data set [4] has as its target T4, Hrb27C (Drosophila melanogaster) (UniProt P48809).
T4 sequence: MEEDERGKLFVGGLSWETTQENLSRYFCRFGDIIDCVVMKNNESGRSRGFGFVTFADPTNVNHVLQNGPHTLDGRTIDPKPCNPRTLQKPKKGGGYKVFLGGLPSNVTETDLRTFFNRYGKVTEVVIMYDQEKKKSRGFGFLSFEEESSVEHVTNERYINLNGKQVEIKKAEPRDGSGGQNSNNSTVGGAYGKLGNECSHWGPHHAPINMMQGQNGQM
The note with it: 20 nM protein, 1.5 uM RNA pool; 20 mM HEPES pH 7.8, 70 mM KCl, 10 mM NaCl, 10% glycerol, 2 mM DTT, 0.1 ug/uL BSA; 30 min, 4 C (protocol of this paper; not …); cited from earlier work.

The target of data set [5] is pabpc4 (Xenopus tropicalis) (UniProt A0A8J0QFT8). Conditions: 20 nM protein, 1.5 uM RNA pool; 20 mM HEPES pH 7.8, 70 mM KCl, 10 mM NaCl, 10% glycerol, 2 mM DTT, 0.1 ug/uL BSA; 30 min, 4 C.
pabpc4 (Xenopus tropicalis), sequence (A0A8J0QFT8 entry or part of it): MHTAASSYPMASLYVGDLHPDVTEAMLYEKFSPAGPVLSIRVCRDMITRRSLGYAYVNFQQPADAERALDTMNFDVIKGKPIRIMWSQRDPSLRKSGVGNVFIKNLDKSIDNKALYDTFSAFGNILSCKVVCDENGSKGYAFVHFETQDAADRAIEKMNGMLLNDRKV
Data set [6] concerns the target T5, rsp-3 (Caenorhabditis elegans) (UniProt Q9NEW6).
T5 sequence: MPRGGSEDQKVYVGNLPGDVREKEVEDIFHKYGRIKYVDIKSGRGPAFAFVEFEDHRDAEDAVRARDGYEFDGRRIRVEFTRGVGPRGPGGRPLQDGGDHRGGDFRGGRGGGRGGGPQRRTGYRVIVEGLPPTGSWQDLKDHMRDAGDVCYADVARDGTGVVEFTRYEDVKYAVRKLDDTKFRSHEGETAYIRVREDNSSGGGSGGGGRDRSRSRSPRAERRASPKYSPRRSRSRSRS
Conditions: 20 nM protein, 1.5 uM RNA pool; 20 mM HEPES pH 7.8, 70 mM KCl, 10 mM NaCl, 10% glycerol, 2 mM DTT, 0.1 ug/uL BSA; 30 min, 4 C.

Data set [7] addresses T6, grld-1 (Caenorhabditis elegans) (UniProt H2KYB8).
T6 sequence: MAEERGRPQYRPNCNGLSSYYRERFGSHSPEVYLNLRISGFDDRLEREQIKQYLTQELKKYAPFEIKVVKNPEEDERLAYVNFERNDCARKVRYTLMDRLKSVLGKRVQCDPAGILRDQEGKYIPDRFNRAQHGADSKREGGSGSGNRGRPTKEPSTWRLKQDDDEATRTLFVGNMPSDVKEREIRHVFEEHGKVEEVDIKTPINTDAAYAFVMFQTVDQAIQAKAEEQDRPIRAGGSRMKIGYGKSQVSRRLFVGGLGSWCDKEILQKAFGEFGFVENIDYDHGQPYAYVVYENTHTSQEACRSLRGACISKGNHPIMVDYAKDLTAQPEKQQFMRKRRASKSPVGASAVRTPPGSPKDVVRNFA
The note with it: 20 nM protein, 1.5 uM RNA pool; 20 mM HEPES pH 7.8, 70 mM KCl, 10 mM NaCl, 10% glycerol, 2 mM DTT, 0.1 ug/uL BSA; 30 min, 4 C.

In data set [8] the target is T7, Smp_024140 (Schistosoma mansoni) (UniProt G4VQ61).
T7 sequence: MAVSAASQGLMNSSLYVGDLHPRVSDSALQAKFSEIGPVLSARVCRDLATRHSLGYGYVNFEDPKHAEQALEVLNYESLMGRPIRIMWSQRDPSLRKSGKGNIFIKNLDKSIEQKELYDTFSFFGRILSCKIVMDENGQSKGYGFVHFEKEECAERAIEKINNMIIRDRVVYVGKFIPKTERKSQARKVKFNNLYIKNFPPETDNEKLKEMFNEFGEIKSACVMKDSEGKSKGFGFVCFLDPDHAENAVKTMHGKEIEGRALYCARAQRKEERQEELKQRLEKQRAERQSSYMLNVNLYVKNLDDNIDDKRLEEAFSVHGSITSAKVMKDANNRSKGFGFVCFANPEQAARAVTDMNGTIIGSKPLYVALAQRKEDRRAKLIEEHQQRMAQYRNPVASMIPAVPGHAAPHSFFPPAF
The note with it: 20 nM protein, 1.5 uM RNA pool; 20 mM HEPES pH 7.8, 70 mM KCl, 10 mM NaCl, 10% glycerol, 2 mM DTT, 0.1 ug/uL BSA; 30 min, 4 C.

Data set [9] addresses T8, PF14_0151 (Plasmodium falciparum) (UniProt Q8ILU3).
T8 sequence: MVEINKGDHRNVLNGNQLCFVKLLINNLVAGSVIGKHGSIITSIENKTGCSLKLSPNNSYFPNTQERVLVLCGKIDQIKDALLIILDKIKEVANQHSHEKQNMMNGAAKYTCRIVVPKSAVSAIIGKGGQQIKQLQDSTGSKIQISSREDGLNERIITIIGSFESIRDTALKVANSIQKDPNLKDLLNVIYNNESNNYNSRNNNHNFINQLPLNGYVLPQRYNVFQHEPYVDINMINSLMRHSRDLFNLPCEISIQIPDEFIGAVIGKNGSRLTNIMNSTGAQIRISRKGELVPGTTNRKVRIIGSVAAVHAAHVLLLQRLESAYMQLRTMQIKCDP
The note with it: 20 nM protein, 1.5 uM RNA pool; 20 mM HEPES pH 7.8, 70 mM KCl, 10 mM NaCl, 10% glycerol, 2 mM DTT, 0.1 ug/uL BSA; 30 min, 4 C.

Take AUAAAUA [RNAcompete motif RNCMPT00500]: the binding signal (z-score (mean of top ten 7-mers)) in [1] stood at 8.79. As for AAAAAAA [RNAcompete motif RNCMPT00508], in data set [2], the binding signal (z-score (mean of top ten 7-mers)) is 14.8. In [3], AUAUUGU [RNAcompete motif RNCMPT00478] showed a binding signal (z-score (mean of top ten 7-mers)) of 7.33.

UAGGNUA [RNAcompete motif RNCMPT00093]: in [4], the binding signal (z-score (mean of top ten 7-mers)) is 12.1. As to AAAAAAG [RNAcompete motif RNCMPT00511], in [5], the binding signal (z-score (mean of top ten 7-mers)) was found to be 13.4. In turn, AGGACGA [RNAcompete motif RNCMPT00503] yielded a binding signal (z-score (mean of top ten 7-mers)) in data set [6] of 7.55. Substance ACUACUA [RNAcompete motif RNCMPT00509] yielded a binding signal (z-score (mean of top ten 7-mers)) in [7] of 8.74. As to AAAAAA [RNAcompete motif RNCMPT00501], in [8], the binding signal (z-score (mean of top ten 7-mers)) was found to be 8.02. Regarding AUACANA [RNAcompete motif RNCMPT00505], the binding signal (z-score (mean of top ten 7-mers)) in data set [9] is 8.57.
